Numbering of substitutions follows the chain as printed.
B1: sdAb WuN1-APEX2 fusion protein (VHH)
VHH: QVKLQQSGGGLVQAGGSLRLSCAPSGRTFSVNAMGWYRQAPGKQREPVALISTGGSTNYADSVKGRFTITRDNVKNTVYLQMNTLKPEDTAVYYCYTERWKPRGIERDWGQGTQVTVSS
B2: sdAb WuN3-APEX2 fusion protein (VHH)
VHH: B1 VHH with Q1K, A14T, T70S

Molecular target: beta-galactosidase (β-gal), negative control expressed in HEK293T cells (Escherichia coli K12 lacZ, assumed, UniProt P00722 = β-galactosidase)
Assay: immunostaining of cells or tissue

beta-galactosidase (β-gal), negative control expressed in HEK293T cells, sequence (P00722 whole entry): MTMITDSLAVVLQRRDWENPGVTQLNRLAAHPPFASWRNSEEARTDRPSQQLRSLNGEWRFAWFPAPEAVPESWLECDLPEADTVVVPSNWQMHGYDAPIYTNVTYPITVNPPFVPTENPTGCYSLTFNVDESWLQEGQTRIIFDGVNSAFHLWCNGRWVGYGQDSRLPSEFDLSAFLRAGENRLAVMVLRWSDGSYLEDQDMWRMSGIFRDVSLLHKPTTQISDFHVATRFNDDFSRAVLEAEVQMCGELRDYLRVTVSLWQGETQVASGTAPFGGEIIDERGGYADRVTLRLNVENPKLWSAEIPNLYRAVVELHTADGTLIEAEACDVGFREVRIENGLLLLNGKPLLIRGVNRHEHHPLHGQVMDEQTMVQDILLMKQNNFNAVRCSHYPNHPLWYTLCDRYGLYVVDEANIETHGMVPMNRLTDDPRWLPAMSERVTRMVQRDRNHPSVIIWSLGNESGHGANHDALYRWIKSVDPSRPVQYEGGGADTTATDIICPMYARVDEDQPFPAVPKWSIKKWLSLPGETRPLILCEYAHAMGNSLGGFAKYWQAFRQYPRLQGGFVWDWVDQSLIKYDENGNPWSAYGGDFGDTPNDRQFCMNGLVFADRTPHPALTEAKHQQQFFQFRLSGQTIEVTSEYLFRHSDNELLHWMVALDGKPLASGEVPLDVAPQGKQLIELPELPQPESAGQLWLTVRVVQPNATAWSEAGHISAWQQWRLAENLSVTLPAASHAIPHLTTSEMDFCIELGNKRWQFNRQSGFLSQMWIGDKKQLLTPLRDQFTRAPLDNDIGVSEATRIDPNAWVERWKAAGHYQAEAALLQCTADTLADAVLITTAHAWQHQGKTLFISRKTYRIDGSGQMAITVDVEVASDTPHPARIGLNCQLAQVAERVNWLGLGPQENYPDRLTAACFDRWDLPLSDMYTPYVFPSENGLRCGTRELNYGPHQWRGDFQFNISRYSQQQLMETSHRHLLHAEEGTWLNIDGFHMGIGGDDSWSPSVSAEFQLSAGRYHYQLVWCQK

| Binder | binding result |
| --- | --- |
| B1 | no binding (tested: 100 nM) |
| B2 | no binding (tested: 100 nM) |
